The text below walks through data of patent publication US20230212294A1 (MINGHUI PHARMACEUTICAL SHANGHAI, published 2023).

Assay [1] deals with T1, B7-H3 on CHOK cells overexpressing B7-H3.
T1 construct: whole, on cells; also called CHO cells that artificially express B7-H3; B7-H3-expressing CHO cells
T1 sequence (Q5ZPR3 whole entry, species assumed, looked up): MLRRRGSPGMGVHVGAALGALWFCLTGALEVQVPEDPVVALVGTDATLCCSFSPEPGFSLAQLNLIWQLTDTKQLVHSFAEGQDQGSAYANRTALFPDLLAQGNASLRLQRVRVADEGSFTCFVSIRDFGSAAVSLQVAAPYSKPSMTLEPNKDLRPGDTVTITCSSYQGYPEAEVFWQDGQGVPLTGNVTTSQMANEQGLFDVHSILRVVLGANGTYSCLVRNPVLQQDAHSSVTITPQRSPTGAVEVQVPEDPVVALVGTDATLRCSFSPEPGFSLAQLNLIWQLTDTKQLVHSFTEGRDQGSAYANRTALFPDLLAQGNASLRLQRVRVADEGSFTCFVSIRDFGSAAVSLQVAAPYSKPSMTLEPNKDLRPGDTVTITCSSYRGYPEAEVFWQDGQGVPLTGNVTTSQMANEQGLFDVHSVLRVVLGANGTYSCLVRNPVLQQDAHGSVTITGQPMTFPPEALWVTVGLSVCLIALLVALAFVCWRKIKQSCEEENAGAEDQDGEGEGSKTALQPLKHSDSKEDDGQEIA
Briefly: flow cytometry on CHOK cells overexpressing B7-H3. Here is the method: (§1) CHOK cells overexpressing B7-H3 or NCI-H322 cells endogenously expressing B7-H3 were added to a round-bottom 96-well plate at 100,000 cells per well, centrifuged to remove the supernatant, and then added with a gradient-diluted anti-B7-H3 antibody and incubated at 4 degrees for 1 h. After incubation, the cells were washed twice with FACS buffer (PBS containing 2% FBS), then added with fluorescent-labeled goat anti-human secondary antibody (Abcam, ab98596) and incubated for 0.5 h. After incubation, the cells were washed twice with FACS buffer, then resuspended with FACS buffer and detected with flow cytometry (Beckman, cytoFlex).
Background: Flow cytometry measures light scatter and fluorescence of single cells or particles in a stream.

Assay [2] shares this target. Put plainly: cell-based or functional assay.
Assay [3] addresses T2, B7-H3 endogenously expressed on human tumor cell lines (human, UniProt Q5ZPR3 29-534).
T2 construct: whole, on cells; The cell line is named in the assay or readout field of each row; also called NCI-H322 cells endogenously expressing B7-H3; B7-H3-positive human tumor cell lines NCI-H1975, BxPC-3, Calu-6
T2 sequence (looked up): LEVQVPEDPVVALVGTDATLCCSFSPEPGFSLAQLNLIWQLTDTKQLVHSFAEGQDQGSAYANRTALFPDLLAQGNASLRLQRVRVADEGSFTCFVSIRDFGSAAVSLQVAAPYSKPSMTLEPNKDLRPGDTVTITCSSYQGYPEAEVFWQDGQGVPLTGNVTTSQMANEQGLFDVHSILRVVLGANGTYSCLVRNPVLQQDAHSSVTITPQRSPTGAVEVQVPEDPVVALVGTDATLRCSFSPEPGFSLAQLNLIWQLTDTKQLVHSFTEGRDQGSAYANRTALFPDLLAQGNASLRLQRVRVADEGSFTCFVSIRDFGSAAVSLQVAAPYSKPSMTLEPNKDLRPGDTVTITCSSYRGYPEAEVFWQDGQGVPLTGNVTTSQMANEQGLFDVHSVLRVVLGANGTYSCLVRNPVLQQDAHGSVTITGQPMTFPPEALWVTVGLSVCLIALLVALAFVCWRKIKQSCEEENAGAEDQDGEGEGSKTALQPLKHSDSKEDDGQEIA
Briefly: flow cytometry on NCI-H322 cells. Here is the method:
as §1

The target in the next assay is T3, mouse B7-H3-his (mouse, UniProt Q8VE98 29-244, limits assumed).
T3 construct: His-tagged recombinant protein coated on the ELISA plate; not shown: his tag
T3 sequence (looked up): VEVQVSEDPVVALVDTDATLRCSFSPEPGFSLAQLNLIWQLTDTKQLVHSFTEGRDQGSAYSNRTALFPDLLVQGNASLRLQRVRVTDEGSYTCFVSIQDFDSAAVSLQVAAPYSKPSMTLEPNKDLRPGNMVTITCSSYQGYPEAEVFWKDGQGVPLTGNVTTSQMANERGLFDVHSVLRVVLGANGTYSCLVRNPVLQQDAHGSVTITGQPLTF
Briefly: ELISA, mouse B7-H3-his coated at 2 µg/mL. Here is the method:
(§2) Human B7-H3-his, mouse B7-H3-his and monkey B7-H3-his were diluted to 2 μg/mL with PBS, and added to the ELISA plate at 30 μL per well. The ELISA plate was then incubated in a refrigerator at 4° C. for 16-20 hours. The next day, the ELISA plate was washed once with a lotion (PBS containing 0.05% Tween 20) and then blocked with 5% skim milk powder for 1 hour. After blocking, the ELISA plate was washed once, then added with gradient-diluted anti-B7-H3 antibodies, and incubated at room temperature for 1 h. After incubated, the ELISA plate was washed three times, then added with goat anti-human HRP-labeled secondary antibody, and incubated at room temperature for 1 h. After incubated, the ELISA plate was washed three times, then developed for 5-15 minutes by adding TMB, and finally terminated with 2M sulfuric acid. The data were recorded on the microplate reader.
(ELISA stands for enzyme-linked immunosorbent assay.)

Another assay deals with T4, monkey B7-H3-his (monkey).
T4 chain: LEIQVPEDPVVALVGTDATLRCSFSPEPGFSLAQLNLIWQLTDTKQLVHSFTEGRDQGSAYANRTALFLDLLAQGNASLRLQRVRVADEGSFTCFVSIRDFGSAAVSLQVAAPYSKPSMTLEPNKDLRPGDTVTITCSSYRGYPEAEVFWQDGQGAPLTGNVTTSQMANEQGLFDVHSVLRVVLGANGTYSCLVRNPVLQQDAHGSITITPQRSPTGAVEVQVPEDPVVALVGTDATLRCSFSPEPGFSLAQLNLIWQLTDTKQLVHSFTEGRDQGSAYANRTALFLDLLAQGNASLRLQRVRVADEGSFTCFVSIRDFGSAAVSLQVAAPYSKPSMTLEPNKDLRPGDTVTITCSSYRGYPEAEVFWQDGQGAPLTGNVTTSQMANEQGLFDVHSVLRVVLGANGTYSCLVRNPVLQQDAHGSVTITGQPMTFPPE
Briefly: ELISA, antigen coated at 2 µg/mL. How it is done: as §2

For assay [4], the target named is T2, B7-H3 endogenously expressed on human …. Briefly: cell-based or functional assay.
Assay [5] has the same target. Put plainly: cell-based or functional assay. This is another data set of the same source.

B1: IL-P7-A06 (antibody, V domains shown)
VH: QVQLQQSGPEVVRPGVSVKISCKGSGYTFTDYAMHWVKQSHAKSLEWIGIINTYNGNTNYNQKFKGKATMTVDKSSSTAYMEFARLTSEDSAIYYCARSRGPWDRYFDVWGAGTTVTVSS
VL: DIVMTQSQKFMSTSVGDRVSVTCKASQNVGTAVAWYQQKPGQSPKLLIYSASNRYTGVPDRFTGSGSGTDFTLTISNMQSEDLADYFCQQYSSYPFTFGSGTKLEIK
notes: Unhumanized murine variable regions; full-length antibody
One may read the EC50 as the concentration giving half of the maximal effect. In the case of B1, the EC50 in assay [1] was determined as 0.278 µg/mL; in assay [3], 0.072 µg/mL. For the same molecule, the “IC50 of CHO endocytosis experiment (toxin-labeled secondary antibody, cell viability)” value in assay [2] amounted to 0.0086 µg/mL. Further, in the assay with mouse B7-H3-his, the binding result is reported as “no binding”.

B2: IL-P5-B01 (antibody, V domains shown)
VH: EVQLQESGPSLVKPSQTLSLTCSVTGDSITSGSWNWIRKFPGNKLEYMGYISYSGSIYYNPSLKSRISITRDTSKNQYYLQLNSVTTEDTATYYCARGNPAWFAYWGQGTLVTVSA
VL: DIVMTQSQKFMSTSVGDRVSVTCKASQNVGTNVAWYQQKPGQSPKALIYSASYRYSGVPDRFTGSGSGTDFTLTISNVQSEDLAEYFCQQYNSYPYTFGGGTKLEIK
notes: as for B1
Take B2: the EC50 with monkey B7-H3-his is 0.115 µg/mL; in assay [1], 0.43 µg/mL; in assay [3], 0.131 µg/mL. Moreover, the “IC50 of CHO endocytosis experiment (toxin-labeled secondary antibody, cell viability)” value in assay [2] is 0.0028 µg/mL. Besides, the binding result with mouse B7-H3-his is listed as “no binding”.

B3: IL-P7-C05-H4L3-MMAE (antibody, V domains shown)
VH: EVQLVESGGGLVQPGGSLRLSCAASGFTFSSYAMSWVRQAPGKGLELVAAINSNGGSTYYADSVKGRFTISRDNAKNTLYLQMSSLRAEDTAVYYCTRNEEFRRGLAYWGQGTLVTVSS
VL: DIQMTQSPSSLSASVGDRVTITCRASENIYSNLAWYQQKPGKAPKLLIYAASNLQSGVPSRFSGSGSGTDYTLTISSLQPEDFATYYCQHFWGTPPWTFGQGTKLEIK
modifications: MMAE (Monomethyl auristatin E) coupled to the antibody; linker, site and drug load not stated
For the molecule B3, in assay [4], the “Inhibitory IC50 against proliferation of BxPC-3 cells, 72 h, CellTiter-Glo” value was 7.7 nM and the “Inhibitory IC50 against proliferation of NCI-H1975 cells, 72 h, CellTiter-Glo” value was determined as 7.4 nM. Also, in assay [5], the “Inhibitory IC50 against proliferation of BxPC-3 cells, 5 days, CellTiter-Glo” value came to 5.5 nM and the “Inhibitory IC50 against proliferation of Calu-6 cells, 5 days, CellTiter-Glo” value stood at 0.3 nM.

B4: IL-P6-C08 (antibody, V domains shown)
VH: EVKLVESGGDLVKPGGSLKLSCAASGFTFSSYGMSWVRQTSDKRLEWVATISGGGRYTYYPDSVKGRFTISRDSSKNTLYLQMSSLKSEDTAMYYCVRHYDGYLDYWGLGTTLTVSS
VL: DIQMIQSPASLSASVGETVTITCRASENIYSYLAWYQQKQGKSPQLLVYNAKTLAEGVPSRFSGSGSGTQFSLKINSLQPEDFGSYYCQHHYGTPPYTFGGGTKLEIK
notes: as for B1
On to B4, for which the EC50 with monkey B7-H3-his turned out to be 0.0541 µg/mL; in assay [3] it was 0.158 µg/mL. For the same molecule, the binding result in the assay with mouse B7-H3-his is reported as “no binding”.
